The record followed here is article doi:10.1101/2021.02.09.429966 (bioRxiv, 2021).

The assay addresses Clumping factor A (ClfA) on S. aureus LACΔspaΔsbi (Staphylococcus aureus USA300 LAC Δspa, …, UniProt A0A0H2XG16). The assay can be described thus: flow cytometry on cells.

B1: T1-2-IgG1 (antibody, V domains shown)
VH: QVQLKESGPGLVAPSQSLSITCAISGFSLSRYSVHWVRQPPGKGLEWLGMIWGGGNTDYNSALKSRLSISKDNSKSQVFLKMNSLQTDDTAMYYCARKGEFYYGYDGFVYWGQGTLVTVSA
VL: NIMMTQSPSSLAVSAGEKVTMSCKSSQSVLYSSNQKNYLAWYQQKPGQSPKLLIYWASTRESGVPDRFTGSGSGTDFTLTISSVQAEDLAVYYCHQYLSSYTFGGGTKLEIK
As to B1, the binding result is reported as “binds”.
